According to publication PMC3575800 (Nucleic Acids Research, 2013):

T1: PH domain of the Tfb1 subunit of TFIIH (Tfb1PH; residues 1-115) (S. cerevisiae, UniProt P32776 1-115)
T1 sequence (looked up): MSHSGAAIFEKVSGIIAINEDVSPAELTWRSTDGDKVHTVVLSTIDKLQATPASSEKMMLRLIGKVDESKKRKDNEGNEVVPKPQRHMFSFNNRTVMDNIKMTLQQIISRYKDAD


What was measured:
[1] = biological target: T1, PH domain of the Tfb1 subunit of TFIIH …; assay: ITC
[2] = biological target: T1, PH domain of the Tfb1 subunit of TFIIH …; assay: NMR titration

Binder	Kd [1] [nM]	stoichiometry N [1]	binding result [2]	fold reduction of affinity against Rad4 76-115 [1] [fold]
FYQDEEDDLSDIDWEEVSLDGSL (peptide, UniProt Q06665 41-63, looked up) [Rad34 residues 41-63]	11	1		
FYQDEEDDLSDIDSEEVSLDGSL (peptide, UniProt Q06665 41-63, looked up) [Rad34 residues 41-63, W54S mutant]	> 10000			
RSEDEGCDSDECEWEEVELKPKNVK (peptide, UniProt P07276 359-383, looked up) [Rad2 residues 359-383 (acidic segment of the spacer region of Rad2)]			binds	
TDDSVEEIQSSEEDYDSEEFEDVTDGNEVAGVEDISVEIK (domain or fragment, S. cerevisiae, UniProt P14736 76-115, looked up) [Rad4 residues 76-115 (acidic segment from the N-terminal region of Rad4)]	50	1		
TDDSVEEIQSSEEDYDSEEFEDPTDGNEVAGVEDISVEIK (domain or fragment, S. cerevisiae, UniProt P14736 76-115, looked up) [Rad4 residues 76-115, V98P mutant]		1		24
TDDSVEEIQSSEEDYDSEEPEDVTDGNEVAGVEDISVEIK (domain or fragment, S. cerevisiae, UniProt P14736 76-115, looked up) [Rad4 residues 76-115, F95P mutant]		1		50
